According to article PMC11659164, “Inceptor binds to and directs insulin towards lysosomal degradation in β cells” (Nature Metabolism, 2024):

Key:
[1] = biological target: His-tagged inceptor ectodomain (human) (UniProt Q6UXG2); assay: native MS; charge detection mass spectrometry (CDMS), Orbitrap Q Exactive UHMR; inceptor ECD-His (5 µM) alone or with insulin at 1:6 and 1:20, or with proinsulin; 150 mM ammonium acetate, pH 3–7; 37 °C for 30 min
[2] = biological target: inceptor–HaloTag fusion protein (FRET experiments, INS-1E cells) (human) (UniProt Q6UXG2); assay: FRET or BRET; live INS-1E cells overexpressing inceptor–HaloTag labelled with TMR; 100 nmol/l INS-630 and 0, 10, 100 and 1,000 nmol/l proinsulin in the medium for 40 min; corrected FRET efficiency by confocal imaging
[3] = biological target: the molecule itself; assay: native MS; charge detection mass spectrometry (CDMS), Orbitrap Q Exactive UHMR; inceptor ECD-His (5 µM) alone or with insulin at 1:6 and 1:20, or with proinsulin; 150 mM ammonium acetate, pH 3–7; 37 °C for 30 min

## bovine proinsulin (ligand)
[1]
  N for each inceptor dimer: 1
  stoichiometry N: 1

## proinsulin (unlabelled, added to the medium in the FRET experiments) (ligand)
[2]
  reduction of the FRET signal of inceptor to INS-630 at a 1:10 molar ratio of proinsulin to insulin: 50%

B1: His-tagged inceptor ectodomain (domain or fragment, human, UniProt Q6UXG2 42-910, looked up)
chain: TGPELHACKESEYHYEYTACDSTGSRWRVAVPHTPGLCTSLPDPIKGTECSFSCNAGEFLDMKDQSCKPCAEGRYSLGTGIRFDEWDELPHGFASLSANMELDDSAAESTGNCTSSKWVPRGDYIASNTDECTATLMYAVNLKQSGTVNFEYYYPDSSIIFEFFVQNDQCQPNADDSRWMKTTEKGWEFHSVELNRGNNVLYWRTTAFSVWTKVPKPVLVRNIAITGVAYTSECFPCKPGTYADKQGSSFCKLCPANSYSNKGETSCHQCDPDKYSEKGSSSCNVRPACTDKDYFYTHTACDANGETQLMYKWAKPKICSEDLEGAVKLPASGVKTHCPPCNPGFFKTNNSTCQPCPYGSYSNGSDCTRCPAGTEPAVGFEYKWWNTLPTNMETTVLSGINFEYKGMTGWEVAGDHIYTAAGASDNDFMILTLVVPGFRPPQSVMADTENKEVARITFVFETLCSVNCELYFMVGVNSRTNTPVETWKGSKGKQSYTYIIEENTTTSFTWAFQRTTFHEASRKYTNDVAKIYSINVTNVMNGVASYCRPCALEASDVGSSCTSCPAGYYIDRDSGTCHSCPTNTILKAHQPYGVQACVPCGPGTKNNKIHSLCYNDCTFSRNTPTRTFNYNFSALANTVTLAGGPSFTSKGLKYFHHFTLSLCGNQGRKMSVCTDNVTDLRIPEGESGFSKSITAYVCQAVIIPPEVTGYKAGVSSQPVSLADRLIGVTTDMTLDGITSPAELFHLESLGIPDVIFFYRSNDVTQSCSSGRSTTIRVRCSPQKTVPGSLLLPGTCSDGTCDGCNFHFLWESAAACPLCSVADYHAIVSSCVAGIQKTTYVWREPKLCSGGISLPEQRVTICKTIDFWLK
notes: signal peptide in the construct; ectodomain of human inceptor (KIAA1324), Uniprot entry Q6UXG2, residues 1–910; Seen as monomer and, prevalently, as dimer by CDMS; also called inceptor ECD-His; inceptor ECD-6×His; source: HEK293 (pCDNA3-inceptor ECD-6×His), purified
[3]
  stoichiometry N: 2
